Test results taken from PMC11790763, “A Peptide Motif Covering Splice Site B in Neuroligin-1 Binds to Aβ and Acts as a Neprilysin Inhibitor” (Molecular Neurobiology, 2024).

Molecular target: T1, recombinant rat NL1 (Rattus norvegicus, UniProt Q62765)
T1 construct: the extracellular domain of NL1 was immobilized on a sensor chip; purchased R&D systems (Abingdon, UK)
Experiment: Surface plasmon resonance binding to immobilized NL1
Conditions: SPR, KD for Aβ1-42 versus KD for NX1β
Description: Binding analysis was performed on a Biacore 2000 SPR biosensor (GE Healthcare) at 25 °C using HBS-P (10 mM HEPES, pH 7.4, 150 mM NaCl, 0.005% [v/v] Surfactant P20) supplemented with 3 mM CaCl2 as a running buffer. Approximately 2000 Resonance Units (RU) of NL1 was immobilized on a CM4 sensor chip at a flow rate of 5 μl/min by amine coupling. Binding to serially diluted recombinant NX1β, used as a positive control, was performed as previously described. Aβ1-42 was dissolved in anhydrous DMSO to a stock concentration of 3.21 mM followed by serial dilution in running buffer. Peptide was injected into the chip, and binding experiments were performed at a flow rate of 20 μl/min, followed by regeneration of sensor chip with 10 μl of 15 mM NaOH and 150 mM NaCl. After subtraction of blank control, the binding curves were analyzed based on a nonlinear curve fitting using a 1:1 Langmuir binding model and the software package BIAevaluation 4 (GE Healthcare). The apparent equilibrium constant (KD) was calculated as kd/ka, in which ka and kd are the apparent association and dissociation constants, respectively.

affinity constant KD of NL1 to Aβ, times lower compared to NX1β: approximately 11 times
B1: NL1: recombinant rat neuroligin-1, soluble ectodomain (R&D systems) (protein, UniProt Q62765 46-697, looked up)
extracellular domain: QKLDDVDPLVTTNFGKIRGIKKELNNEILGPVIQFLGVPYAAPPTGEHRFQPPEPPSPWSDIRNATQFAPVCPQNIIDGRLPEVMLPVWFTNNLDVVSSYVQDQSEDCLYLNIYVPTEDVKRISKECARKPGKKICRKGDIRDSGGPKPVMVYIHGGSYMEGTGNLYDGSVLASYGNVIVITVNYRLGVLGFLSTGDQAAKGNYGLLDLIQALRWTSENIGFFGGDPLRITVFGSGAGGSCVNLLTLSHYSEGNRWSNSTKGLFQRAIAQSGTALSSWAVSFQPAKYARILATKVGCNVSDTVELVECLQKKPYKELVDQDVQPARYHIAFGPVIDGDVIPDDPQILMEQGEFLNYDIMLGVNQGEGLKFVENIVDSDDGVSASDFDFAVSNFVDNLYGYPEGKDVLRETIKFMYTDWADRHNPETRRKTLLALFTDHQWVAPAVATADLHSNFGSPTYFYAFYHHCQTDQVPAWADAAHGDEVPYVLGIPMIGPTELFPCNFSKNDVMLSAVVMTYWTNFAKTGDPNQPVPQDTKFIHTKPNRFEEVAWTRYSQKDQLYLHIGLKPRVKEHYRANKVNLWLELVPHLHNLNDISQYTSTTTKVPSTDITLRPTRKNSTPVTSAFPTAKQDDPKQQPSPFSVDQRDYSTELS
modifications: extracellular domain
